The text below walks through data of US20160208003A1 (AFFITECH RESEARCH, published 2016).

The target in assay [1] is T1, human CC chemokine receptor 4 (CCR4) (human, UniProt P51679 1-360).
T1 construct: whole, on cells; Always presented on cells; also called CD194; human CCR4
T1 sequence (looked up): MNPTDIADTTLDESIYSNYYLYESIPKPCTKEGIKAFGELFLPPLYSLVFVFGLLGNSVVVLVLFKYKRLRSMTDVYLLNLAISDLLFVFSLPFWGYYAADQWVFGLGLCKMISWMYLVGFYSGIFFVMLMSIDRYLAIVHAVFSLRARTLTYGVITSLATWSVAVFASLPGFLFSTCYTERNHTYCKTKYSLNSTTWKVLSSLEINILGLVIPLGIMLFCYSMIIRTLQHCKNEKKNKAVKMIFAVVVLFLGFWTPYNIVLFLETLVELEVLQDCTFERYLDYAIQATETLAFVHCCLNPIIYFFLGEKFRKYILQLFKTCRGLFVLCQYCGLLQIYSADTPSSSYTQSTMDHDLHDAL
The experiment in a line: competition flow cytometry on CCRF-CEM cells: unlabelled competitor against ca. 20 nM biotinylated TARC, with 1 % BSA, streptavidin-PE [d]. Here is the method:
(§1) The competition binding assays were performed with biotinylated MDC or biotinylated TARC on DT-40-CCR4+ and CCRF-CEM cells. DT40 and CCRF-CEM cells were cultured as described in Example 2. TARC and MDC were biotinylated using standard procedures. The biotinylation process causes some losses, so the concentrations of biotinylated MDC and TARC recited herein are approximate.
(§2) The cells were harvested from culture flasks, washed 2 times with PBS (400×g, 5 min, 4° C.) and resuspended in PBS containing 0.2% BSA and 0.09% NaN3. 1×10^5 cells per well were aliquoted into V-shaped 96-well plates (Greiner Bio-One, Frikenhausen, Germany). Cells were centrifuged (400×g, 5 min, 4° C.) and resuspended in 50 μl IgG, single chain or unlabeled ligand (1:10 dilution series starting on 100/500/26, 4 μg/ml) mixed with a fixed concentration of biotinylated ligand (10 or 20 nM, see legend to FIG. 24). The cells were incubated for 2 hours at 4° C. and mixed with a pipette every 45 min. The cells were washed three times with 150 μl PBS with 0.2% BSA and 0.09% NaN3 and stained with 3 μg/ml streptavidin PE (BD Biosciences) for 45 minutes at 4° C. […] Apparent binding affinities (KD) were calculated according to the following equation derived from previously described methods (Kipriyanov et al, 1997b; Schodin & Kranz, 1993): […]

Assay [2] concerns the target T1, human CC chemokine receptor 4 (CCR4). Kind of assay: competition flow cytometry: unlabelled competitor against a fixed amount of biotinylated MDC; cell line not named on the sheet or in the legend. (Flow cytometry measures light scatter and fluorescence of single cells or particles in a stream.)
Assay [3] has the same target. Kind of assay: flow cytometry competition on DT-40-CCR4+ cells; unlabelled MDC titrated, competitor biotinylated MDC (ca. 10 nM). Here is the method: as §1, §2
For assay [4] the target is unchanged. The experiment in a line: competition flow cytometry on DT-40-CCR4+ cells: unlabelled competitor against ca. 20 nM biotinylated TARC, with 1 % BSA, streptavidin-PE [b]. The procedure:
as §1, §2

Assay [5] has the same target. Kind of assay: calculated from the IC50; CCRF-CEM cells, competitor biotinylated MDC. The procedure:
as §1, §2

The target is the same in assay [6]. Kind of assay: calculated from the IC50; DT-40-CCR4+ cells, competitor biotinylated MDC. The procedure: as §1, §2
The target is the same in assay [7]. Kind of assay: competition flow cytometry on CCRF-CEM cells: unlabelled competitor against ca. 20 nM biotinylated TARC, without BSA, streptavidin-PE [c]. Here is the method: as §1, §2
Assay [8] has the same target. The experiment in a line: competition flow cytometry on DT-40-CCR4+ cells: unlabelled competitor against ca. 20 nM biotinylated TARC, without BSA, streptavidin-PE [a]. The procedure:
as §1, §2

Assay [9] shares this target. The experiment in a line: cell-based or functional assay.
The target is the same in assay [10]. The experiment in a line: flow cytometry, IgG titration on CCR4+ DT40 cells; one site-specific binding fit (Prism); IgG titration on CCR4+ DT40 cells. The procedure: (§3) The IgG forms of antibodies 17G, 9E and KM3060var using various CCR4⁺ cell types were used (see Example 2).
(§4) For the flow cytometry experiments, the cells were harvested from the culture flasks, washed 2 times with PBS, re-suspended in PBS with 0.2% BSA and 0.09% NaN₃ and finally aliquoted 1×10⁵ cells per well into V-shaped 96-well plates (Greiner Bio-One, Frickenhausen, Germany). Cells were centrifuged at 400×g for 5 min and then incubated at 4° C. for 45 min with different antibody dilutions.
(§5) After washing with PBS with 0.2% BSA and 0.09% NaN₃, the cells were stained with 10 μg/ml of RPE-conjugated goat anti-human IgG (AbDSerotec, Düsseldorf, Germany) for 30 minutes at 4° C. The stained cells were washed, re-suspended in 200 μl PBS with 0.2% BSA and 0.09% NaN₃ and transferred to a U-shaped 96-well plate (Corning, Schiphol-Rijk, The Netherlands) for acquisition on EasyCyte flow cytometer (Guava Technologies, Hayward, Calif., USA).

The target is the same in assay [11]. The experiment in a line: flow cytometry, IgG titration on CCRF-CEM cells; one site-specific binding fit (Prism); IgG titration on CCRF-CEM cells (natural CCR4+ line). Here is the method: as §3, §4, §5
Assay [12] has the same target. The experiment in a line: flow cytometry, IgG titration on CCR4+ HEK293T cells; one site-specific binding fit (Prism); IgG titration on CCR4+ HEK293T cells. Here is the method:
as §3, §4, §5

Assay [13] has the same target. The experiment in a line: flow cytometry, IgG titration on CCR4+ DT40 cells (2); one site-specific binding fit (Prism); IgG titration on CCR4+ DT40 cells, second experiment, DT40 (2). The procedure:
as §3, §4, §5

For assay [14] the target is unchanged. Kind of assay: cell-based or functional assay. The source holds these as a separate data set.
For assay [15] the target is unchanged. The experiment in a line: cell-based or functional assay. The source holds these as a separate data set.
The target is the same in assay [16]. The experiment in a line: competition flow cytometry on CCR4-transfected DT40 cells: unlabelled IgG against 6.8 nM biotinylated KM3060var IgG, streptavidin-RPE. Here is the method:
To analyze the epitope binding of anti-CCR4 antibodies 17G, 9E and KM3060var, competition experiments were performed using flow cytometry. The binding of biotinylated antibodies to CCR4 transfected DT40-cells was challenged in the presence of different concentrations of non-biotinylated anti-CCR4 antibodies. The CCR4⁺ DT40 cells were harvested from culture flasks, washed 2 times with PBS, re-suspended in PBS with 0.2% BSA and 0.09% NaN₃ and finally aliquoted 1×10⁵ cells per well into V-shaped 96-well plates (Greiner Bio-One, Frickenhausen, Germany). Cells were centrifuged at 400×g for 5 min and then incubated at 4° C. for 3-4 hours with fixed amounts of biotinylated IgG and different concentrations of non-biotinylated antibodies. After washing with PBS with 0.2% BSA and 0.09% NaN₃, the cells were stained with 2.5 μg/ml of Streptavidin—RPE (BD Pharmingen, San Diego, Calif., USA) for 30 minutes at 4° C. The stained cells were washed, re-suspended in 250 μl PBS with 0.2% BSA and 0.09% NaN₃ and transferred to a U-shaped 96-well plate (Corning, Schiphol-Rijk, The Netherlands) for acquisition on EasyCyte flow cytometer (Guava Technologies, Hayward, Calif., USA). The results shown in FIGS. 10 A, B and C illustrate that the 17G and 9E antibodies have epitopes that are identical or at least overlapping.

For assay [17] the target is unchanged. The experiment in a line: competition flow cytometry: unlabelled competitor against a fixed amount of biotinylated TARC; cell line not named on the sheet or in the legend.
For assay [18] the target is unchanged. The experiment in a line: flow cytometry competition on CCRF-CEM cells; unlabelled TARC titrated, competitor biotinylated TARC (ca. 20 nM). The procedure:
as §1, §2

Assay [19] shares this target. Kind of assay: flow cytometry competition on DT-40-CCR4+ cells; unlabelled TARC titrated, competitor biotinylated TARC (ca. 20 nM). The procedure:
as §1, §2

Values joined by “and” are separate entries in the source; they are usually repeats but may differ in a detail not shown here. Identical values can stand only once. Like-named read-outs stand apart in the source and are kept apart here.

B1: macrophage-derived chemokine (MDC) (ligand, UniProt O00626 25-93, looked up)
chain: GPYGANMEDSVCCRDYVRYRLPLRVVKHFYWTSDSCPRPGVVLLTFRDKEICADPRVPWVKMILNKLSQ
notes: also called CCL22; biotinylated MDC
By IC50 is commonly meant the concentration that gives 50% inhibition. Broadly, the Kd is the concentration at which binding is half-saturated. On to B1, for which the “IC50 (read off the curve)” value in [1] is around 7 nM; in [2], around 20 nM; in assay [4], around 30 nM; in assay [7], around 60 nM; in assay [8], around 30 nM. Besides, in [3], the IC50 worked out at 10.8 nM. Besides, the Kd in [5] is 0.18 nM; in assay [6], 0.19 nM.

B2: KM3060var IgG (antibody, V domains shown)
VH: EVQLVESGGDLMKPGGSLKISCAASGFIFSNYGMSWVRQTPDMRLEWVATISSASTYSYYPDSVKGRFTISRDNAENSLYLQMNSLRSEDTGIYYCGRHSDGNFAFGYWGRGTLVTVSS
VL: DVLMTQTPLSLPVSLGDQASISCRSSRNIVHINGDTYLEWYLQRPGQSPKLLIYKVSNRFSGVPDRFSGSGSGTDFTLKISRVEAEDLGVYYCFQGSLLPWTFGGGTRLEIK
notes: Corresponds to KM3060 expressed in a different host; also called comparator KM3060var
On to B2, for which the results for the “ADCC of CCRF-CEM cells, EC50 (mean, N=3)” value in assay [9] and in assay [15] were 405 ng/mL and 367 ng/mL, respectively. The Kd in [10] was 3.67 nM; in assay [11], 79.8 nM; in assay [12] it was 11.4 nM; in [13], 4.82 nM. Besides, the “Ca++ flux in CCRF-CEM cells: signal response to MDC stimulation (% of MDC in the absence of IgGs), IgG 10 µg/mL” value in [14] turned out to be 92%. Moreover, the “Ca++ flux in CCRF-CEM cells: signal response to TARC stimulation (% of TARC alone), IgG 10 µg/mL” value in assay [14] was found to be 104%. For the same molecule, the “IC50 (read off the curve)” value in [16] was around 6 nM.

B3: thymus and activation regulated chemokine (TARC) (ligand, UniProt Q92583 24-94, looked up)
chain: ARGTNVGRECCLEYFKGAIPLRKLKTWYQTSEDCSRDAIVFVTVQGRAICSDPNNKRVKNAVKYLQSLERS
notes: also called CCL17; biotinylated TARC
With B3, the “IC50 (read off the curve)” value in assay [17] was around 0.3 nM. Further, the IC50 is 43.4 nM and 31.8 nM in assay [18]; 40.9 nM and 34.6 nM in assay [19].
